Measured values taken from the DeepSol protein solubility set.

experiment: soluble on expression in E. coli; label from the status in PepcDB or PDB records

Sequence | soluble on expression in E. coli
MFRRKLTALDYHNPAGFNCKDETEFRNFIVWLEDQKIRHYKIEDRGNLRNIHSSDWPKFFEKYLRDVNCPFKIQDRQEAIDWLLGLAVRLEYGDNAEKYKDLVPDNSKTADNATKNAEPLINLDVNNPDFKAGVMALANLLQIQRHDDYLVMLKAIRILVQERLTQDAVAKANQTKEGLPVALDKHILGFDTGDAVLNEAAQILRLLHIEELRELQTKINEAIVAVQAIIADPKTDHRLGKVGRLEHHHHHH | soluble
MFRVGILTVSDKGFRGERQDTTHLAIREVLAGGPFEVAAYELVPDEPPMIKKVLRLWADREGLDLILTNGGTGLAPRDRTPEATRELLDREVPGLAELMRLVGLRKTPMAALSRGVAGVRGRTLILNLPGSPKGARESLEAVLPVLPHALSLVTGKPWKEGHHE | soluble
MFSISLLSCLFLGTVPALAQTGGERRLSPEKSEIWGPGLKAHVVLPVRYFYIRAVDTSGEQFTSSPGEKVFQVKISAPDEQFTRVGVQVLDRKDGSFIVRYRMYASYRNLKIEVKHHGQHVAESPYVLRGPVYHENCDCPLEDSAAWLREMNCSETISQIQKDLAHFPTVDPEKIAAEIPKRFGQRQSLCHYTLKDNKVYIKTHGEHVGFRIFMDAILLSLTRKVRMPDVEFFVNLGDWPLEKKKSNSNIQPIFSWCGSTESRDIVMPTYDLTDSVLETMGRVSLDMMSVQANTGPPWESKNSTAVWRGRDSRKERLELVKLSRKHPELIDAAFTNFFFFKHDESLYGPIVKHISFFDFFKHKYQINIDGTVAAYRLPYLLVGDSVVLKQDSIYYEHFYNELQPWKHYIPVKSNLSDLLEKLKWAKEHDAEAKKIAKAGQEFARNNLMGDDIFCYYFKLFQGYANLQVSEPQIREGMKRVEPQSEDDLFPCTCHRRKAKDEL | soluble
MFSLRDAKCGQTVKVVKLHGTGALKRRIMDMGITRGCEIYIRKVAPLGDPIQINVRGYELSLRKSAAEMIEVE | not soluble
MFSPTFKSFLLLCLLVVNSWAQDPTTTATSTTTVPSTSTVTTTTVASTSSGSTTASTAAGGSTSTTAAGGSTASTAAGGSTSTTAAGGSTASTAAGGPTGSTAAGGSTASTAAGGSTASTAAGGSTASTVAGATSVVPSSPAPPTQPPVNNGCELGWKFFNRPSGGWCIKVFPGYFALKEHAENACQANGAATLTGLQNKAEALFIQCEYRNSPYFSCFSCFQNSVLGYCSSTVEVLYEYSSMLSEMSAPSGSVWIGIHRTPACNRKPLSAQCNKNTAFRWTDKSATGVDGFVFQRGQPDNGGRALNQNCALLLASSKPFIDAGGRYYAAQMEDVHCNATFVPGNMARKTSGYACGKPNKCQPGWKFFDRQSGGWCMKVFTGFHAAKVDAEAACKDVGATLSGLENKEEAIFIQNALLARISQASGSVWIGIQRKAECLGKGLTASGTPTTSFEWTDNSASGVGGMVFQAGQPDNGVTALNQNCALLLASSQPYIDARGRFYAATMEDVPCVANFVASNEARRTRGYVCGKPL | not soluble
MFTHLDENQQPRMVDISQKVAGDRRAVAQCIVQLPKAIKDYLTGQEIFLKKGPVIQTAIIAGTMAVKKTADLIPFCHTLPIHGCKFDINIVYQKRDYLEIFLQCAVNTNYKTGVEMEALCGVSVAALTIYDMCKSISSEIIIKNTKLIEKTGGKADVSQTPLYGLVLTGGKSRRMGKDKALINYQGQPHGQYIYDLLAKYCEQVFLSARPSQWQGTPLENLPTLVDRGESVGPMSGILTALQSYPGVNWLIIACDLAYINSTMVEKLIAQARQDLVATCYENADQGFPEALCGFYTPLALQLFTKAQNIGLHCPVKILQMADCQLIKPDNLFDIANINSPEDYGQINLEHHHHHH | not soluble
MFTHVESFKSAFLEKLETMYGKSFKDSTTRDQYNTLGYMVREYMNSQWIATNESYRSGERKQMYYLSIEFLLGRLLGSNILNLGIRDVCEQGLSELGISLQQLEEVEADAGLGNGGLGRLAACFLDSLASLDLPGHGCGIRYKHGLFDQKIVDGYQVEFPEQWLLHENVWEVRRHDQAVEVSYFGNVEPLYIDGRLEFRHTNAEVIMAVPYDVPVVGYETSTVNTLRLWNAEPVPFPQNCKDILKYKRETEAVSEFLYPDDTHDEGKILRLKQQYFLVSASLQNIVRLHRERYGDLRQLHEKIAIHINDTHPVLAIPELMRILLDEEKLAWEEAWHITTQTISYTNHTTLSEALEKWPIHIFKPLLPRIYMIIEEINERFCHELWERYPYEWHRIEEMAIIAHDLVKMAHLAIVGSHSVNGVAKIHTEILKQREMRLFYEFYPDKFNNKTNGIAHRRWLMKANPQLTNLISEAIGTEWKKEPIKLQELQLVQYDASFQEKFAEVKQERKEILAERIHNTMGITIDPNSIFDVQVKRLHAYKRQLLNVLHILYLYNRLKEDASFTFYPRTFIFGAKASPGYYYAKKIIKLINELARKVNNDPYVSQYMKVIFLENYRVSLAEDIFPAADVSEQISTASKEASGTGNMKFMMNGAITLGTLDGANIEIKDRVGDDNCFIFGLTAEEVLHYYQNGGYRASDYYHHNGHIKKVVDQLTNGFFAQSGAEFEAIYDSLVIQNDEYFVLRDFGPYAERQEAVGRAYENRTKWLEMSILNIAQSGHFASDRTILQYSNEIWGIGNTVTQI | not soluble
MGAGASAEEKHSRELEKKLKEDAEKDARTVKLLLLGAGESGKSTIVKQMKIIHQDGYSLEECLEFIAIIYGNTLQSILAIVRAMTTLNIQYGDSARQDDARKLMHMADTIEEGTMPKEMSDIIQRLWKDSGIQACFDRASEYQLNDSAGYYLSDLERLVTPGYVPTEQDVLRSRVKTTGIIETQFSFKDLNFRMFDVGGQRSERKKWIHCFEGVTAIIFCVALSDYDLVLAEDEEMNRMHESMKLFDSICNNKWFTDTSIILFLNKKDLFEEKIKKSPLTICYPEYAGSNTYEEAGNYIKVQFLELNMRRDVKEIYSHMTCATDTQNVKFVFDAVTDIIIKENLKDCGLF | soluble
MGALGYHPYFESNMIHSMTAFAADEHLTPWGLLACELRSVNHRFLDIVIRLPEELRALEPQLRERVAARVSRGKLDLTVRLSPQEIHTGKLVVNELLLSQLSTLALRLSAQFPALRVTFAELLQIPGVLKGEQIDMATLQGHAVALLDKVLNNFIATREREGLKMQAMIAQRASAIERIVGEVRILIPTIREGQHNKLSARMNHLSYPVDPGRIEQELVLWLQKLDVDEELDRLSSHISELHRILQQREPVGRRLDFLMQEFNREANTLGSKSVDSRTSNATIELKVLIDQIREQVQNIE | soluble
MGAQYLKRVYLMSVIAETNEALLAKIKALCGDYLREVDTHPGQWDDSSVRRLVRNPPAVYVAWLGQQPNNNPHTVTARWGVFVVAEVLNGQRRNAVGIYQIVETLTAGLHKQRIAPSGMFELQTVQNLWSDTQSGMGVAVYGMYFNAVQPLPDMTSDDTLCDFKIYDHTFNQDKDEHTIDGKTRLTVELPTQSD | not soluble
MGARCDVAVIGAGPAGCAAAIALKRLGVASVLLLEAGDGARPRFGESLPPDIRLILAQLGLAEAFAALGFDPCVGAASSWGEDGLGYNDFLFNPHGLGWHIDRARFDAFLRDAAVAAGAELRFDTVFDSVVMTGDAARLRVRGERGDETITAGFVLDATGRAARVARALGAERIESDRLVCAAALIRIDPDGLLGQRSLLEAVDYGWWYAARLSPDEAIVVVSTDADLLRARRLHRSDAWYGHLAATRHVAAALGTAAPPSQLMVRQARSSRLSRAADQRWRAIGDAASVYDPIMAQGVTKAMIEGLAAARDIVRHMPDAEEGLDARFADYLSLRDYFYGQEGRWPDAPFWTRRRRPQPAVRTLWEVSALEHHHHHH | not soluble
MGASGRICTVVPVEDAGEAAMLALSSPTGCVELRLDFYPGDPGEALELLATRLHSPARVVVTLRSAGHGGLDRRARGERRAVLARLEDLAPEGWLVDYEVEDLHASSGCSGCIASSHPTTPPTPRRALEEAAVAERLGASAYKLVYPGVEPWEQAAAARLVAEAGGFATSFTLGPGTLASRLTALALGAPLVFGSHPRAPLDGVPQSSEIMELYLRMGLGES | not soluble
MGASKYDVKRLVDDYVNRLAKNGVLPDVIDKEPILPRVTLPESEITSQSYRKYPKKPKAIGKVGSTGGNRNGMGAIHPTLISYPEEQRKTNSRVKNNRSNYHIGNIGNIGGNIGNGQKMNRNKNGGRNQGGNHPDNMGIPMFPIARPTPYDLAEYIERGLNTGRSNHRTPQNFRRYPEHECDYYAGPCATSF | not soluble
